The record followed here is patent US20240368295A1 (SUTRO BIOPHARMA, published 2024).

In assay [1] the target is cynomolgus BCMA on 293T-cynoBCMA cells (cynomolgus, UniProt Q02223 1-184 (human entry)). As to the kind of experiment: FACS, 293T-cynoBCMA cells. On the procedure:
(§1) Variants for which sufficient protein was purified in secondary screening were tested in a fluorescence-activated cell sorting (FACS) cell-binding assay. […] 6-12 point dilutions of anti-BCMA variants starting from concentrations of about 100-200 nM antibody were dispensed into each well using a BioMekFX (Beckman Coulter). Cells were then incubated on ice for 1 hr, washed with FACS buffer and incubated for 1 hr on ice with […] FACS buffer containing […] Alexa647-conjugated Goat Anti-Human IgG dispensed using BioMekFX (Beckman Coulter). Cells were then washed 2× with FACS buffer and fixed for 10 minutes in […] PBS with 2% PFA prior to fluorescence detection. Samples were acquired using a Beckton Dickinson LSRII FACS. Geometric Mean Fluorescence Intensity of BCMA antibody binding was analyzed using FlowJo® software (Trec Star, Inc.).

In assay [2] the target is T1, BCMA on BCMA-positive NCI-H929, ARP-1 and U266B1 cells (human, UniProt Q02223 1-184).
T1 sequence: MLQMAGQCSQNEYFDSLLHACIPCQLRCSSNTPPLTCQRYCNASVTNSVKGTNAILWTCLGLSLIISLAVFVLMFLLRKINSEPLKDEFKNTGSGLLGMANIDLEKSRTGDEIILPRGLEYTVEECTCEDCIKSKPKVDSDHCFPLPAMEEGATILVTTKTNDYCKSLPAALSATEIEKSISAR
Kind of assay: cell-based or functional assay.

For assay [3], the target named is T2, rat BCMA on 293T-ratBCMA cells (rat).
T2 construct: whole, on cells
As to the kind of experiment: FACS, 293T-ratBCMA cells.

In assay [4] the target is T1, BCMA on BCMA-positive NCI-H929, ARP-1 …. Kind of assay: FACS, NCI-H929 cells. On the procedure:
as §1
A general note: In flow cytometry, cells or beads pass a laser one at a time.

Another assay concerns the target T3, human BCMA-Fc (human, UniProt Q02223 5-51, limits assumed).
T3 construct: Bought from R&D Systems; also called huBCMA-Fc; BCMA-Fc (R&D Systems)
T3 chain (looked up): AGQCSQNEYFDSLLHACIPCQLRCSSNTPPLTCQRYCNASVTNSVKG
As to the kind of experiment: SPR (Biacore), captured antibody. A general note: Surface plasmon resonance follows binding to a sensor surface in real time, without labels.

Sequence of cynomolgus BCMA on 293T-cynoBCMA cells (Q02223 other isoform, or with tags, fused parts or gaps): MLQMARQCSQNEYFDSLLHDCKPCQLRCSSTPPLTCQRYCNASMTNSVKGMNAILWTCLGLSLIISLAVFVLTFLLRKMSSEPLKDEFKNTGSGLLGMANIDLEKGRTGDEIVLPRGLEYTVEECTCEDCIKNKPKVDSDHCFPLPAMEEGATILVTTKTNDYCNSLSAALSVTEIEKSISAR

B1: 9E12 (antibody, V domains shown)
VH: AVTLDESGGGLQTPGGGLSLVCKASGFTFSDYGLGWMRQAPGKGLEYVARINSAGSGTYYGSAVDGRATISRDNGQSTVRLQLNNLRAEDTGTYYCTRGGGGASIDGWGHGTEVIVSS
VL: ALTQPSSVSANPGETVKITCSGGGSYYGSYYYGWYQQKSPGSAPVTLIYNNNNRPSDIPSRFSGSTSGSTGTLTITGVRAEDEAVYYCGSFDSSTDAIFGAGTTLTVL
notes: chicken HybriFree-derived antibody; also called Antibody 43
B1: the “Bmax (MFI)” value in assay [1] is 13200 MFI. Besides, in assay [2], the “ARP-1, SC239-conjugated 2° antibody cell killing, EC50” value is 1.2 nM; the “ARP-1, SC239-conjugated 2° antibody cell killing, Span” value came to 80%; the “U266B1, SC239-conjugated 2° antibody cell killing, EC50” value was found to be 1.4 nM; the “U266B1, SC239-conjugated 2° antibody cell killing, Span” value stood at 47%. The “Bmax (MFI)” value in assay [3] stood at 4690 MFI. Besides, in assay [4], the “Bmax (MFI)” value turned out to be 8140 MFI.

B2: 10F4 (antibody, V domains shown)
VH: AVTLDESGGGLQTPGGALSLVCKASGFTFSGYNMGWVRQAPGKGLEYVAGITYGTGSYTAYGAAVKGRATISRDNGQSTLRLQLNNLRAEDTATYYCARGGGLNSYGCSGANIDAWGHGTEVIVSS
VL: ALTQPSSVSANLGGTVKITCSGGGNYFGSYYYGWYQQKAPGSAPVTVIYNNNNRPSDIPSRFSGSTSGSTSTLTISGVRAEDEAVYFCGGFDSSTDAIFGAGTTLTVL
notes: chicken HybriFree-derived antibody; also called Antibody 37
For the molecule B2, the “Bmax (MFI)” value in assay [1] was found to be 12800 MFI. In assay [2], the “ARP-1, SC239-conjugated 2° antibody cell killing, EC50” value was 1 nM; the “ARP-1, SC239-conjugated 2° antibody cell killing, Span” value came out at 87%; the “U266B1, SC239-conjugated 2° antibody cell killing, EC50” value is 0.36 nM; the “U266B1, SC239-conjugated 2° antibody cell killing, Span” value is 81%. Further, in the assay with human BCMA-Fc, the binding result is on record as “no binding (tested: antigen 1-100 nM)”. Further, in assay [3], the “Bmax (MFI)” value was 410 MFI. Further, the “Bmax (MFI)” value in assay [4] was 18700 MFI.

B3: 10E10 (antibody, V domains shown)
VH: AVTLDESGGGLQTPGGGLSLVCKASGFTFSSYGMGWMRQAPGKGLEFVARINSGGSSYTDYGSAVKGRATISRDDGQSTVRLQLNNLRAEDTGIYYCTRGGGGASIDGWGHGTEVIVSS
VL: ALTQPSSVSANPGETVKITCSGGGNYAGSYYYGWYQQKSPGSAPLTVIYNSNNRPSDIPSRFSGSLSGSTGTLTITGVRAEDEAVYFCGGFDSSTDAIFGAGTTLTVL
notes: chicken HybriFree-derived antibody; also called Antibody 46
As for B3, the “Bmax (MFI)” value in assay [1] stood at 4540 MFI. In assay [2], the “ARP-1, SC239-conjugated 2° antibody cell killing, EC50” value is 3 nM; the “ARP-1, SC239-conjugated 2° antibody cell killing, Span” value amounted to 46%; the “U266B1, SC239-conjugated 2° antibody cell killing, EC50” value is 2.5 nM; the “U266B1, SC239-conjugated 2° antibody cell killing, Span” value was found to be 20%. Moreover, the “Bmax (MFI)” value in assay [3] came to 906 MFI. Moreover, in assay [4], the “Bmax (MFI)” value turned out to be 3440 MFI.

B4: 10H1 (antibody, V domains shown)
VH: AVTLDESGGGLQTPGGALSLVCKASGFTFSGYGMGWMRQAPGKGLEYVARINSAGSDTDYGAAVKGRATISRDNGQSTVRLQLNNLRAEDTATYFCTRGGGGASIDGWGHGTEVIVSS
VL: ALTQPSSVSANPGETVKITCSGGGNYYGSYYYGWYQQKAPGSAPVTVIYNNNNRPSNIPSRFSGSKSGSTGTLTITGVQAEDEAVYFCGGFDSSSDAIFGAGTTLTVL
notes: chicken HybriFree-derived antibody; also called Antibody 45
As for B4, in assay [1], the “Bmax (MFI)” value stood at 21200 MFI. Further, in assay [2], the “ARP-1, SC239-conjugated 2° antibody cell killing, EC50” value worked out at 0.86 nM; the “ARP-1, SC239-conjugated 2° antibody cell killing, Span” value came out at 88%; the “U266B1, SC239-conjugated 2° antibody cell killing, EC50” value stood at 0.29 nM; the “U266B1, SC239-conjugated 2° antibody cell killing, Span” value stood at 89%. Moreover, the “Bmax (MFI)” value in assay [3] amounted to 4350 MFI. In addition, in assay [4], the “Bmax (MFI)” value was determined as 22500 MFI.

B5: 9A5 (antibody, V domains shown)
VH: AVTLDESGGGLQTPGGAVSLVCKASGFSISDYGMGWMRQAPGKGLQYVARIDHDGRYTDYGAVVKGRATISRDNGQSTVRLQLNNLRAEDTGTYYCTRGGGAASIDTWGHGTEVIVSS
VL: ALTQPSSVSANPGETVKITCSGGGNYVGGYYYGWYQQKAPGSALVTLIYNNNNRPSNIPSRFSGSTSGSTSTLTITGVRAEDEAVYFCGSFDSSTDAIFGAGTTLTVL
notes: chicken HybriFree-derived antibody; also called Antibody 42
Turning to B5, the “Bmax (MFI)” value in assay [1] is 18200 MFI. Moreover, in assay [2], the “ARP-1, SC239-conjugated 2° antibody cell killing, EC50” value came out at 0.7 nM; the “ARP-1, SC239-conjugated 2° antibody cell killing, Span” value was 93%; the “U266B1, SC239-conjugated 2° antibody cell killing, EC50” value was found to be 0.29 nM; the “U266B1, SC239-conjugated 2° antibody cell killing, Span” value is 84%. In addition, the “Bmax (MFI)” value in assay [3] worked out at 2780 MFI. Besides, the “Bmax (MFI)” value in assay [4] was 19700 MFI.

B6: 9H1 (antibody, V domains shown)
VH: AVTLDESGGGLQTPGGALSLVCKGSGFTFSDYGMGWMRQAPGKGLQYVARINSAGSDTNYGSAVKGRATISRDDGQSTVRLQLSSLRAEDTGIYYCTRGGGGASIDGWGHGTEVIVSS
VL: ALTQPSSVSANPGETVKITCSGGGSYYGSYYYGWYQQKSPGSAPVTLIYNNNNRPSDIPSRFSGSTSGSTGTLTITGVRAEDEAVYYCGSFDSSTDAIFGAGTTLTVL
notes: chicken HybriFree-derived antibody; also called Antibody 44
For the molecule B6, the “Bmax (MFI)” value in assay [1] is 11400 MFI. Moreover, in assay [2], the “ARP-1, SC239-conjugated 2° antibody cell killing, EC50” value is 1.3 nM; the “ARP-1, SC239-conjugated 2° antibody cell killing, Span” value came out at 74%; the “U266B1, SC239-conjugated 2° antibody cell killing, EC50” value stood at 1.1 nM; the “U266B1, SC239-conjugated 2° antibody cell killing, Span” value was 50%. Besides, the “Bmax (MFI)” value in assay [3] came to 3450 MFI. The “Bmax (MFI)” value in assay [4] is 6160 MFI.
